Experimental data from paper PMC7174398 (Nature Communications, 2020).

Legend:
[1] = target: the molecule itself; assay: SEC-MALS; mHsp60 (WT or variant) with mHsp10, pre-incubated with 1 mM ATP, 1 mM BeCl2 and 10 mM NaF for 5 min; Superose-6, ~25 C
[2] = target: the molecule itself; assay: SEC-MALS; mHsp60 with mHsp10, pre-incubated with 1 mM ATP for 5 min; Superose-6, ~25 C

B1: wild-type human mitochondrial Hsp60 (mHsp60) (natural protein)
chain: GSAKDVKFGADARALMLQGVDLLADAVAVTMGPKGRTVIIEQSWGSPKVTKDGVTVAKSIDLKDKYKNIGAKLVQDVANNTNEEAGDGTTTATVLARSIAKEGFEKISKGANPVEIRRGVMLAVDAVIAELKKQSKPVTTPEEIAQVATISANGDKEIGNIISDAMKKVGRKGVITVKDGKTLNDELEIIEGMKFDRGYISPYFINTSKGQKCEFQDAYVLLSEKKISSIQSIVPALEIANAHRKPLVIIAEDVDGEALSTLVLNRLKVGLQVVAVKAPGFGDNRKNQLKDMAIATGGAVFGEEGLTLNLEDVQPHDLGKVGEVIVTKDDAMLLKGKGDKAQIEKRIQEIIEQLDVTTSEYEKEKLNERLAKLSDGVAVLKVGGTSDVEVNEKKDRVTDALNATRAAVEEGIVLGGGCALLRCIPALDSLTPANEDQKIGIEIIKRTLKIPAMTIAKNAGVEGSLIVEKIMQSSSEVGYDAMAGDFVNMVEKGIIDPTKVVRTALLDAAGVASLLTTAEVVVTEIPKEEKDPGMGAMGGMGGGMGGGMF
notes: residues left at the N-terminus after TEV cleavage and removal of the HisTag; human mitochondrial Hsp60 (mt-cpn60); Oligomeric state depends on nucleotide and concentration: monomers, heptameric single rings, tetradecameric double rings; also called WT mHsp60; mt-cpn60; source: E. coli Rosetta, purified (nickel-agarose, TEV cleavage, anion exchange, oligomerised with ATP, Superdex 200); not …
- stoichiometry N [1]: 14
- stoichiometry N [2]: 7
